Assay results published in patent US20170275650A1, “ENDOSOMAL ESCAPE DOMAINS FOR […] OF MACR[…] CELLS” (priority 2014, published 2017).

Columns and labels:
[1] = tested on: GFPβ1-10 expressing MCF7c#G7 cells; conditions: increasing amounts of peptide (FIG. 6)
Method: (§3) Cell morphology and cell viability. Cell morphology was determined by FACS analysis of FSC and SSC. Gates were set manually for viable cells using untreated control cells as reference and the fraction of viable cells compared to non-viable cells was determined for each sample. Data are presented as the relative difference compared to non-treated control cells. Viable cells per sample were determined by measuring number of viable cells that were analyzed per second by FACS. Gates for viable cells were set manually using untreated control cells as reference. Data are presented as the relative difference compared to untreated control cells.

[2] = tested on: GFPβ1-10 expressing HaCatc#G7 cells; conditions: increasing amounts of peptide (FIG. 6)
Method: as §3

[3] = tested on: GFPβ1-10 expressing MDA-MB-231c#G3 cells; experiment: split GFP fluorescence complementation transduction assay (FACS); format: cell-based, human; conditions: increasing amounts of peptide (FIG. 6)
Method: (§1) Cell culture, transfections and immunoblots. H1299, MCF7, MDA-MB-231 and HaCat cells were maintained in DMEM supplemented with 10% FBS, 100 U/ml penicillin, and 100 U/ml streptomycin. H1299c#G3, H1299c#G4, MCF7c#G7, MDA-MB-231c#G3 and HaCaTc#G7 cells were generated by transfecting cells with pCMV-mGFPβ1-10 and subsequently grown under hygromycin selection. Hygromycin resistant cells were then treated with GFPβ11-TAT and directly after, individual, transiently fluorescent clonal cells were isolated by FACS sorting. Clones were expanded and tested for stable GFPβ1-10 expression. H1299c#G3, H1299c#G4, MCF7c#G7, MDA-MB-231c#G3 and HaCaTc#G7 cells were maintained in DMEM supplemented with 10% FBS, 100 U/ml penicillin, 100 U/ml streptomycin and 80 or 100 ug/ml hygromycin. Transient transfections of siRNA or plasmid DNA were performed using Lipofectamine 2000 according to standard protocol. Immunblots were performed using 10% SDS-PAGE, semi-dry transfer (BioRad) and developed on ChemiDoc Imager (BioRad).
(§2) Peptide transduction. All transduction experiments were performed in 48-well plates. An optimized protocol was established. First, 15,000 or 20,000 cells were plated in each well. Next day, the indicated peptides were pipetted into eppendorf tubes. Transduction buffer (60% OptiMEM and 40% PBS) was added to peptide (100 μl total volume), directly mixed by pipetting up and down five times and then immediately transferred to cells. All pipetting steps were done in a laminar flow cell culture hood and standardized to 15 min for each plate before transferring the plate of cells to a 37° C. […] CO2 incubator (alternatively cells were incubated 2 h with peptides and another 4 h with DMEM, 10% FBS (FIG. 8b, c, d). For the transduction time-course, cells were incubated with peptides in transduction buffer until indicated time-points. All cells were trypzinized and collected in 250 μl OptiMEM without phenol red and analyzed by FACS (GFP, FSC/SSC). 4000 viable cells were analyzed per sample. Data is presented as fold change in fluorescence compared to non-treated cells.

[4] = tested on: GFPβ1-10 expressing HaCatc#G7 cells; experiment: as above; format: cell-based, human; conditions: increasing amounts of peptide (FIG. 6)
Method: as §1, §2

[5] = tested on: GFPβ1-10 expressing MCF7c#G7 cells; experiment: as above; format: cell-based, human; conditions: increasing amounts of peptide (FIG. 6)
Method: as §1, §2

[6] = tested on: GFPβ1-10 expressing H1299c#G3 cells; format: cell-based, human; conditions: FACS FSC/SSC and viable cell number relative to untreated control cells
Text: Cell morphology and cell viability.

[7] = tested on: GFPβ1-10 expressing H1299c#G3 cells; experiment: split GFP fluorescence complementation transduction assay (FACS); format: cell-based, human; conditions: dose-dependent comparison, up to 60 μM, FACS (FIG. 4, 5)
Method: Peptide transduction. All transduction experiments were performed in 48-well plates. An optimized protocol was established. First, 15,000 or 20,000 cells were plated in each well. Next day, the indicated peptides were pipetted into eppendorf tubes. Transduction buffer (60% OptiMEM and 40% PBS) was added to peptide (100 μl total volume), directly mixed by pipetting up and down five times and then immediately transferred to cells. All pipetting steps were done in a laminar flow cell culture hood and standardized to 15 min for each plate before transferring the plate of cells to a 37° C. CO2 incubator for 1.5 h before addition of 500 μl DMEM supplemented with 10% FBS and another incubation round for 3.5 h in the 37° C. CO2 incubator (alternatively cells were incubated 2 h with peptides and another 4 h with DMEM, 10% FBS (FIG. 8b, c, d). For the transduction time-course, cells were incubated with peptides in transduction buffer until indicated time-points. All cells were trypzinized and collected in 250 μl OptiMEM without phenol red and analyzed by FACS (GFP, FSC/SSC). 4000 viable cells were analyzed per sample. Data is presented as fold change in fluorescence compared to non-treated cells.
To address these problems, the disclosure provides a self-assembling, bimolecular or split GFP fluorescence complementation system that was originally designed to tag and monitor proteins. GFP is composed of 11 β-strands that form a barrel structure allowing for peptidyl backbone cyclization and formation of a fluorescent chromophore. […] Importantly, co-incubation of GFPβ1-10 with the GFPβ11 peptide in trans efficiently reconstitutes GFP fluorescent chromophore bond and GFP fluorescence (FIG. 1a). To study PTD-mediated delivery, cell lines were generated that constitutively expressed the non-fluorescent GFPβ1-10 fragment and treated them in trans with a GFPβ11-PTD/CPP peptide to restore GFP fluorescence.
Cell clones of various human cell lines constitutively expressing the non-fluorescent large GFPβ1-10 fragment, including H1299 non-small cell lung carcinoma, HaCaT immortalized keratinocytes, and MDA-MB-231 and MCF7 breast carcinomas, and assayed for reconstituted intracellular GFP fluorescence after treatment with transducible GFPβ11-PTD/CPP peptides by FACS (FIG. 1a). Starting with human H1299 cells, known to be a good model for PTD/CPP-mediated uptake, two GFPβ1-10 expressing clones were generated (c#G3 and c#G4) (FIG. 8a). GFPβ1-10 expressing H1299c#G3 cells were treated for 1.5 h with increasing amounts of transducible GFPβ11-TAT peptide (0-60 μM), followed by an additional 3.5 h in DMEM supplemented with 10% FBS. At 5 h post-addition of GFPβ11-TAT peptide, cells were trypsinized and live cell assayed by FACS.

[8] = tested on: GFPβ1-10 expressing MDA-MB-231c#G3 cells; conditions: increasing amounts of peptide (FIG. 6)
Method: as §3

With “RDHMVLHEYVNAAGIT-GGSGGC-(S-S)-CGG-RKKRRQRRR-(PEG)6-GFWFG (disulfide bond, (PEG)6-GFWFG) [GFPβ11-(S-S)-TAT-P6-GFWFG]” the cytotoxicity [1] was “Low to no cytotoxicity”, the cytotoxicity [2] was “Low to no cytotoxicity” and the “GFP complementation compared to parental GFPβ11-(S-S)-TAT control peptide” value [3] was “significantly enhanced GFP complementation”. For the same substance, the “GFP complementation compared to parental GFPβ11-(S-S)-TAT control peptide” value [4] was “significantly enhanced GFP complementation”, the “GFP complementation compared to parental GFPβ11-(S-S)-TAT control peptide” value [5] was “significantly enhanced GFP complementation” and the “cytotoxicity / morphological changes” value [6] was “absence of any detectable cytotoxicity”. The “GFP fluorescence / transduction compared to parental GFPβ11-(S-S)-TAT” value [7] was “four-fold increase” and the cytotoxicity [8] was “Low to no cytotoxicity”.
